Here are results for one molecule from paper PMC11551393 (Proceedings of the National Academy of Sciences of the …, 2024).

Data set [1] addresses T1, Bdf1(372-554) (in the fused complex for cryo-EM) (S. pombe, UniProt Q9Y7N0 372-554).
T1 sequence (looked up): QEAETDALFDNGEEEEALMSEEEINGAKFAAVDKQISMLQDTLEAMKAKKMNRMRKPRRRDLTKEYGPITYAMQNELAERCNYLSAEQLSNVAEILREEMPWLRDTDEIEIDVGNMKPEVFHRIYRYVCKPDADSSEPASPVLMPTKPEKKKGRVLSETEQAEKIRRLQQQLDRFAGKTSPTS
Briefly: cryo-EM structure.

The data set “cryo-EM structure” concerns the molecule itself. As to the kind of experiment: cryo-EM structure.

B1: Tdk1(211-357) (in the fused complex for cryo-EM) (domain or fragment, S. pombe, UniProt O74876 211-357, looked up)
chain: MDEWRKSTDEWRKSTDERLENLLNIVREILDVQRDMRNDLSNLTRKVDRMDMRLSRNNNMIMRSFAQPITEVPFFNGDIPDPNLPRITRIEDIDSLSEENCTRYLKGYGVSYDENDQSLWKRQLAKAVGLTAAYDESYTFSPFSSSE
With B1, the binding result in data set [1] is “binds”. Further, in the data set “cryo-EM structure”, the stoichiometry N (in general, a count of units in the complex or per binding partner) stood at 6.
